These results are taken from publication PMC4098657 (Molecular microbiology, 2009).

T1: His-tagged FrzCD full-length protein (M. xanthus, UniProt P43500 1-417)
T1 sequence (looked up): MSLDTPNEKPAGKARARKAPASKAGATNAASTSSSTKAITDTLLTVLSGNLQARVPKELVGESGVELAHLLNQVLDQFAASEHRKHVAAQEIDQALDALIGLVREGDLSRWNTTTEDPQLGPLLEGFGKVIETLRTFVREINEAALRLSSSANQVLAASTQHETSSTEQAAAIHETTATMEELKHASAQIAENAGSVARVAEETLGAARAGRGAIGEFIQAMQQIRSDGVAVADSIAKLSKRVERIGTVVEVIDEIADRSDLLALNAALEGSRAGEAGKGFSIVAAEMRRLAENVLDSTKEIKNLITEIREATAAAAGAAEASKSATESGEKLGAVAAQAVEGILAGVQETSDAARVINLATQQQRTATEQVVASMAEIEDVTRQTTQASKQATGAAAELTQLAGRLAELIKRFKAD

B1: FrzCD^N-ter (domain or fragment, M. xanthus, UniProt P43500 2-135, looked up)
chain: SLDTPNEKPAGKARARKAPASKAGATNAASTSSSTKAITDTLLTVLSGNLQARVPKELVGESGVELAHLLNQVLDQFAASEHRKHVAAQEIDQALDALIGLVREGDLSRWNTTTEDPQLGPLLEGFGKVIETLR
B2: AglZ^Rec (domain or fragment, M. xanthus, UniProt Q1D823 2-240, looked up)
chain: ERRVLIVESEHDFALSMATVLKGAGYQTALAETAADAQRELEKRRPDLVVLRAELKDQSGFVLCGNIKKGKWGQNLKVLLLSSESGVDGLAQHRQTPQAADGYLAIPFEMGELAALSHGIVPPGTDDTGASLDAALNGTREAPPPMPPSLKAAAGGPPKLPKRERRSAMTEEDRAFLDRTFQSIADRKAELLAESRQLKRPPPRRELMGTPEGKIQILRDELKTREAQLARLSEIWNVR
B3: FrzCD^C-ter (domain or fragment, M. xanthus, UniProt P43500 132-417, looked up)
chain: ETLRTFVREINEAALRLSSSANQVLAASTQHETSSTEQAAAIHETTATMEELKHASAQIAENAGSVARVAEETLGAARAGRGAIGEFIQAMQQIRSDGVAVADSIAKLSKRVERIGTVVEVIDEIADRSDLLALNAALEGSRAGEAGKGFSIVAAEMRRLAENVLDSTKEIKNLITEIREATAAAAGAAEASKSATESGEKLGAVAAQAVEGILAGVQETSDAARVINLATQQQRTATEQVVASMAEIEDVTRQTTQASKQATGAAAELTQLAGRLAELIKRFKAD

Common to all, as to assay: cross-linking
Data set [1] deals with the molecule itself.
Data set [2] concerns the target B2.
Data set [3] concerns the target T1, His-tagged FrzCD full-length protein.

As for B1, the binding result in data set [1] and in data set [2] was “binds” each time.
Turning to B2, the binding result in data set [3] is listed as “binds”.
On to B3, for which, in data set [1], the binding result is given as “binds”.
